In the case of “[…] (Pf LSA 1704, 9-mer A03 supermotif peptide) (peptide; other documents disagree on this pair)”, the binding affinity ratio (IC50 of standard peptide / IC50 of test peptide) with HLA-A*1101 (human) was 0.0007; in the experiment with HLA-A*3101 (human) it was 0.0025; in the experiment with HLA-A*3301 (human) it was 0.0043; with HLA-A*6801 (human) it was 0.32.

As to “[…] (Pf LSA 1693, 9-mer A03 supermotif peptide) (peptide; other documents disagree on this pair)”, the binding affinity ratio (IC50 of standard peptide / IC50 of test peptide) in the experiment with HLA-A*6801 (human) was determined as 0.0054.

The record behind these values is patent publication US9266930.
